Residue numbers refer to the chain shown, from its start.
T1: human histidine-rich glycoprotein (HRG), purified from human plasma (human, UniProt P04196 19-525)
T1 construct: also called human purified HRG; human purified HRG protein
T1 sequence: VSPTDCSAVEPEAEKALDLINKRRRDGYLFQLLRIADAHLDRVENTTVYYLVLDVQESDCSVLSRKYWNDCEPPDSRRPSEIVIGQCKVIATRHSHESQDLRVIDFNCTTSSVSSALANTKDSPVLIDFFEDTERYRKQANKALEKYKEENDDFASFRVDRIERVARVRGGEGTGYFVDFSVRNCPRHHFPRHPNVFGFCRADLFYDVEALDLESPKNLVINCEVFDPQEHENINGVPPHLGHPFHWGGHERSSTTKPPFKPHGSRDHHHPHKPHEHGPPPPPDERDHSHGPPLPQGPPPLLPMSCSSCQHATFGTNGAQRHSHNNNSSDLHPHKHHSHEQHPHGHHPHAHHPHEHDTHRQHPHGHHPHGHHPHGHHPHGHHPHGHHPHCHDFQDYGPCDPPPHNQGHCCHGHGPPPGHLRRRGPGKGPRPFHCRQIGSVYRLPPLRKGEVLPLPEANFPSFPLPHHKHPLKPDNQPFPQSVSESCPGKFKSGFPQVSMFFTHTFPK

B1: anti-HRG monoclonal antibody 65-3A (antibody, V domains shown)
VH: QVILKESGPGILQPSQTLSLTCSFSGFSLSTSGVGVSWIRQPSGKGLEWLAHIYWDDDKHYNPSLKSRLTISKDTSRNQVFLRITSVDTADTATYYCALGTVGGPWFPYWGQGTLVTVSA
VL: DVQMNQSHKFMSTSVGDRVSITCKASQDVSTAVAWYQQKPGQSPKILIYWASIRHTGVPDRFTGSGSGTDYTLTISSVQAEDLTLYYCQQHYSTPWTFGGGTKLEIK
notes: Mouse hybridoma monoclonal
B2: anti-HRG monoclonal antibody 3-4E (antibody, V domains shown)
VH: QVQLQQSGAELMKPGASVKISCKATGYTFSTFWMEWVKQRPGHGLEWIGEILPGSGNANYNEKFKGKATFTADTSSNTAYMQLSSLTSEDSAVYYCAIHYYGYGFAYWGQGTLVTVSA
VL: DNVLTQSPAIMSASLGERVTMTCTASSSVSSSYLHWYQQKPGSSPKLWIYTTSNLASGVPVRFSGSGSGTSYSLTISSMEAEDAATYYCHQYHRSPWTFGGGTKLEIK
notes: Mouse (BALB/c) hybridoma monoclonal, Protein A purified; biotin-labeled when used as detection antibody
B3: anti-HRG monoclonal antibody 50-6C-2A (antibody, V domains shown)
VH: EVQLQESGPGLVKPSQSLSLTCTVTGYSITSDYAWNWIRQFPGNKLEWMGYISYSGSTNYNPSLKSRISITRDTSKNQFFLQLNSVTTEDTATYYCASASYRYAWFAYWGQGTLVTVST
VL: DIQMTQTTSSLSASLGDRVTISCRASQDISNYLNWYQQKPDGTVKLLIYYTSRLHSGVPSRFSGSGSGTDYSLTISNLEQEDIGTYFCQQGNTLPTFGGGTKLEIK
notes: Mouse hybridoma monoclonal
B4: anti-HRG monoclonal antibody 67-8A-5F (antibody, V domains shown)
VH: B3 VH with N59S, T119A
VL: B3 VL with H55L, G84A
notes: Mouse hybridoma monoclonal
B5: anti-HRG monoclonal antibody 6-12A-10B-9G (antibody, V domains shown)
VH: B3 VH with K65R, N84I, A97G, T119A
VL: B3 VL with M4V, G84A
notes: Mouse hybridoma monoclonal; biotin-labeled as detection antibody and for bead immobilisation

target: T1, human histidine-rich glycoprotein …; experiment: sandwich ELISA, HRG captured by solid phase 3-4E
Method: (§1) The capture antibody solution was dispensed at 25 μL per well into 384-well Maxisorp plates (NUNC), and the plates were incubated at room temperature for 3 hours. The plates were washed twice with 120 μL of washing solution per well (0.05% Tween 20-containing PBS). A blocking solution (1% BSA-containing PBS) was dispensed at 30 μL per well, and the plates were incubated at room temperature for 3 hours. The blocking solution was removed followed by dispensing the standard substance for evaluation at 20 μL per well (n=2), and the plates were incubated at room temperature for 3 hours. After washing the plates four times with the washing solution as described above, the solution of each detector antibody was dispensed at 10 μL per well, followed by dispensing a horseradish peroxidase-streptavidin solution (0.05 μg/mL) at 10 μL per well, and the plates were incubated at room temperature for 1 hour. After washing the plates four times with the washing solution as described above, a chromogenic substrate solution (TMB (3,3′,5,5′-tetramethylbenzidine)) was dispensed at 20 μL per well followed by incubating the plates at room temperature for 10 minutes, then a reaction stop solution 0.5 M H₂SO₄ was added at 20 μL/well, and the absorbance at 450 nm was measured.
(§2) The results regarding the evaluation of combinations chosen from 21 types of anti-HRG monoclonal antibodies are shown in Table 1. In Table 1, the absorbance at a wavelength of 450 nm of each combination was determined as follows: less than 1.0 OD: −, 1.0 OD or more and less than 2.0 OD: +, 2.0 OD or more and less than 3.0 OD: ++, and 3.0 OD or more: +++. The combinations of antibodies which could construct a sandwich ELISA system having enough level of absorbance change were 86 sets evaluated as ++ or +++ in Table 1.

Row | absorbance at 450 nm [OD] | absorbance at 450 nm (OD450) [od] | Binder
1 | < 1 | – | B1
2 | < 1 | – | B2
3 | – | ≥ 3 | B3
4 | – | ≥ 3 | B4
5 | – | ≥ 3 | B5

target: T1, human histidine-rich glycoprotein …; experiment: sandwich ELISA, HRG captured by solid phase 9-1F
Method: as §1, §2

Row | absorbance at 450 nm [OD] | Binder
6 | < 1 | B1
7 | < 1 | B3
8 | < 1 | B4
9 | < 1 | B5

target: T1, human histidine-rich glycoprotein …; experiment: sandwich ELISA, HRG captured by solid phase 13-2G
Method: as §1, §2

Row | absorbance at 450 nm (OD450) [od] | absorbance at 450 nm [OD] | Binder
10 | 2 to 3 | – | B1
11 | ≥ 3 | – | B2
12 | – | < 1 | B3
13 | – | < 1 | B4
14 | – | < 1 | B5

target: T1, human histidine-rich glycoprotein …; experiment: sandwich ELISA, HRG captured by solid phase 14-6F
Method: as §1, §2

Row | absorbance at 450 nm (OD450) [od] | Binder
15 | 1 to 2 | B1
16 | 2 to 3 | B3
17 | 2 to 3 | B4
18 | ≥ 3 | B5

target: T1, human histidine-rich glycoprotein …; experiment: sandwich ELISA, HRG captured by solid phase 19-1C
Method: as §1, §2

Row | absorbance at 450 nm [OD] | Binder
19 | < 1 | B1
20 | < 1 | B2
21 | < 1 | B3
22 | < 1 | B4
23 | < 1 | B5

target: T1, human histidine-rich glycoprotein …; experiment: sandwich ELISA, HRG captured by solid phase 31-1H
Method: as §1, §2

Row | absorbance at 450 nm [OD] | Binder
24 | < 1 | B1
25 | < 1 | B2
26 | < 1 | B3
27 | < 1 | B4
28 | < 1 | B5

target: T1, human histidine-rich glycoprotein …; experiment: sandwich ELISA, HRG captured by solid phase 32-4C
Method: as §1, §2

Row | absorbance at 450 nm [OD] | Binder
29 | < 1 | B1
30 | < 1 | B2
31 | < 1 | B3
32 | < 1 | B4
33 | < 1 | B5

target: T1, human histidine-rich glycoprotein …; experiment: sandwich ELISA, HRG captured by solid phase 58-5C
Method: as §1, §2

Row | absorbance at 450 nm (OD450) [od] | Binder
34 | 2 to 3 | B1
35 | 1 to 2 | B3
36 | 2 to 3 | B4
37 | 2 to 3 | B5

target: T1, human histidine-rich glycoprotein …; experiment: sandwich ELISA, HRG captured by solid phase 65-3A
Method: as §1, §2

Row | absorbance at 450 nm [OD] | absorbance at 450 nm (OD450) [od] | Binder
38 | < 1 | – | B1
39 | < 1 | – | B2
40 | – | 1 to 2 | B3
41 | – | 1 to 2 | B4
42 | – | 2 to 3 | B5

target: T1, human histidine-rich glycoprotein …; experiment: sandwich ELISA, HRG captured by solid phase 69-1A
Method: as §1, §2

Row | absorbance at 450 nm [OD] | Binder
43 | < 1 | B1
44 | < 1 | B2
45 | < 1 | B3
46 | < 1 | B4
47 | < 1 | B5

target: T1, human histidine-rich glycoprotein …; experiment: sandwich ELISA, HRG captured by solid phase 75-2D
Method: as §1, §2

Row | absorbance at 450 nm (OD450) [od] | Binder
48 | 2 to 3 | B1
49 | ≥ 3 | B3
50 | ≥ 3 | B4
51 | ≥ 3 | B5

target: T1, human histidine-rich glycoprotein …; experiment: sandwich ELISA, HRG captured by solid phase 81-2C
Method: as §1, §2

Row | absorbance at 450 nm [OD] | Binder
52 | < 1 | B1
53 | < 1 | B2
54 | < 1 | B3
55 | < 1 | B4
56 | < 1 | B5

target: T1, human histidine-rich glycoprotein …; experiment: sandwich ELISA, HRG captured by solid phase 88-2E
Method: as §1, §2

Row | absorbance at 450 nm [OD] | Binder
57 | < 1 | B2
58 | < 1 | B3
59 | < 1 | B4

target: T1, human histidine-rich glycoprotein …; experiment: sandwich ELISA, HRG captured by solid phase 93-4C
Method: as §1, §2

Row | absorbance at 450 nm (OD450) [od] | Binder
60 | 2 to 3 | B1
61 | 2 to 3 | B3
62 | 2 to 3 | B4
63 | ≥ 3 | B5

target: T1, human histidine-rich glycoprotein …; experiment: sandwich ELISA, HRG captured by solid phase 40-10G
Method: as §1, §2

Row | absorbance at 450 nm (OD450) [od] | Binder
64 | 2 to 3 | B1
65 | 1 to 2 | B3
66 | 1 to 2 | B4
67 | 2 to 3 | B5

target: T1, human histidine-rich glycoprotein …; experiment: sandwich ELISA, HRG captured by solid phase 42-10D
Method: as §1, §2

Row | absorbance at 450 nm [OD] | Binder
68 | < 1 | B1
69 | < 1 | B3
70 | < 1 | B4
71 | < 1 | B5

target: T1, human histidine-rich glycoprotein …; experiment: sandwich ELISA, HRG captured by solid phase 50-6C-2A
Method: as §1, §2

Row | absorbance at 450 nm (OD450) [od] | absorbance at 450 nm [OD] | Binder
72 | 2 to 3 | – | B1
73 | ≥ 3 | – | B2
74 | – | < 1 | B3
75 | – | < 1 | B4
76 | – | < 1 | B5

target: T1, human histidine-rich glycoprotein …; experiment: sandwich ELISA, HRG captured by solid phase 67-8A-5F
Method: as §1, §2

Row | absorbance at 450 nm (OD450) [od] | absorbance at 450 nm [OD] | Binder
77 | 2 to 3 | – | B1
78 | 2 to 3 | – | B2
79 | – | < 1 | B3
80 | – | < 1 | B4
81 | – | < 1 | B5

target: T1, human histidine-rich glycoprotein …; experiment: sandwich ELISA, HRG captured by solid phase 35-3G-10C
Method: as §1, §2

Row | absorbance at 450 nm [OD] | Binder
82 | < 1 | B1
83 | < 1 | B2
84 | < 1 | B3
85 | < 1 | B4
86 | < 1 | B5

target: T1, human histidine-rich glycoprotein …; experiment: sandwich ELISA, HRG captured by solid phase 94-7A-3C-3D
Method: as §1, §2

Row | absorbance at 450 nm [OD] | absorbance at 450 nm (OD450) [od] | Binder
87 | < 1 | – | B1
88 | < 1 | – | B2
89 | – | 1 to 2 | B3
90 | – | 1 to 2 | B4
91 | – | 1 to 2 | B5

target: T1, human histidine-rich glycoprotein …; experiment: sandwich ELISA, HRG captured by solid phase 6-12A-10B-9G
Method: as §1, §2

Row | absorbance at 450 nm (OD450) [od] | absorbance at 450 nm [OD] | Binder
92 | ≥ 3 | – | B1
93 | ≥ 3 | – | B2
94 | – | < 1 | B3
95 | – | < 1 | B4
96 | – | < 1 | B5

Reference: US20250258178A1 (SHIONOGI, published 2025)
